# According to the supplement of paper PMC10567573:
# B1: BTBD10 (parent)
# chain: DRKLHSRPRKLYKHSSTSSRIAKG
# Variants of: B1
# Assay: protein stability index of a GFP-peptide fusion (GPS, HEK-293T) (PSI 1-6); higher = more stable
# Conditions: c terminus: a fixed tail appended
# 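Further: lentivirally expressed fusions sorted by FACS into six bins by GFP to DsRed ratio, PSI derived from sequencing read proportions per bin multiplied by bin number.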
row,Variant,protein stability index
1,DWKLHSRPRKLYKHSSTSSRIAKG [R2W],3.68
2,DHKLHSRPRKLYKHSSTSSRIAKG [R2H],4.46
3,DYKLHSRPRKLYKHSSTSSRIAKG [R2Y],3.16
4,DNKLHSRPRKLYKHSSTSSRIAKG [R2N],3.96
5,DMKLHSRPRKLYKHSSTSSRIAKG [R2M],3.89
6,DEKLHSRPRKLYKHSSTSSRIAKG [R2E],4.39
7,DTKLHSRPRKLYKHSSTSSRIAKG [R2T],4.09
8,DCKLHSRPRKLYKHSSTSSRIAKG [R2C],3.62
9,DIKLHSRPRKLYKHSSTSSRIAKG [R2I],2.66
10,DGKLHSRPRKLYKHSSTSSRIAKG [R2G],3.95
11,DKKLHSRPRKLYKHSSTSSRIAKG [R2K],3.83
12,DLKLHSRPRKLYKHSSTSSRIAKG [R2L],2.7
13,DPKLHSRPRKLYKHSSTSSRIAKG [R2P],4.02
14,DAKLHSRPRKLYKHSSTSSRIAKG [R2A],3.42
15,DFKLHSRPRKLYKHSSTSSRIAKG [R2F],2.65
16,DRKLHSRCRKLYKHSSTSSRIAKG [P8C],4.03
17,DRKLHSRIRKLYKHSSTSSRIAKG [P8I],3.65
18,DRKLHSRVRKLYKHSSTSSRIAKG [P8V],3.05
19,DRKLHSRERKLYKHSSTSSRIAKG [P8E],4.08
20,DRKLHSRKRKLYKHSSTSSRIAKG [P8K],3.67
21,DRKLHSRMRKLYKHSSTSSRIAKG [P8M],3.02
22,DRKLHSRGRKLYKHSSTSSRIAKG [P8G],3.68
23,DRKLHSRTRKLYKHSSTSSRIAKG [P8T],3.31
24,DRKLHSRHRKLYKHSSTSSRIAKG [P8H],4.12

row,Variant,protein stability index
1,DRKLHSRSRKLYKHSSTSSRIAKG [P8S],3.5
2,DRKLHSRYRKLYKHSSTSSRIAKG [P8Y],2.82
3,DRKLHSRDRKLYKHSSTSSRIAKG [P8D],4.51
4,DRKLHSRQRKLYKHSSTSSRIAKG [P8Q],4.24
5,DRKLHSRNRKLYKHSSTSSRIAKG [P8N],3.81
6,DRKLHSRRRKLYKHSSTSSRIAKG [P8R],3.18
7,DRKLHSRLRKLYKHSSTSSRIAKG [P8L],2.76
8,DRKLHSRWRKLYKHSSTSSRIAKG [P8W],3.95
9,DRKLHSRARKLYKHSSTSSRIAKG [P8A],4.2
10,DRKLHSRFRKLYKHSSTSSRIAKG [P8F],2.21
11,YRKLHSRPRKLYKHSSTSSRIAKG [D1Y],3.03
12,ERKLHSRPRKLYKHSSTSSRIAKG [D1E],3.89
13,LRKLHSRPRKLYKHSSTSSRIAKG [D1L],3.2
14,PRKLHSRPRKLYKHSSTSSRIAKG [D1P],3.42
15,MRKLHSRPRKLYKHSSTSSRIAKG [D1M],3.8
16,SRKLHSRPRKLYKHSSTSSRIAKG [D1S],3.89
17,TRKLHSRPRKLYKHSSTSSRIAKG [D1T],3.16
18,KRKLHSRPRKLYKHSSTSSRIAKG [D1K],3.2
19,RRKLHSRPRKLYKHSSTSSRIAKG [D1R],3.05
20,FRKLHSRPRKLYKHSSTSSRIAKG [D1F],2.9
21,WRKLHSRPRKLYKHSSTSSRIAKG [D1W],2.8
22,GRKLHSRPRKLYKHSSTSSRIAKG [D1G],3.47
23,CRKLHSRPRKLYKHSSTSSRIAKG [D1C],3.94
24,QRKLHSRPRKLYKHSSTSSRIAKG [D1Q],3.81

row,Variant,protein stability index
1,VRKLHSRPRKLYKHSSTSSRIAKG [D1V],3.93
2,ARKLHSRPRKLYKHSSTSSRIAKG [D1A],3.27
3,HRKLHSRPRKLYKHSSTSSRIAKG [D1H],3.42
4,NRKLHSRPRKLYKHSSTSSRIAKG [D1N],4
5,IRKLHSRPRKLYKHSSTSSRIAKG [D1I],2.54
6,DRKLHSTPRKLYKHSSTSSRIAKG [R7T],4.31
7,DRKLHSDPRKLYKHSSTSSRIAKG [R7D],4.54
8,DRKLHSGPRKLYKHSSTSSRIAKG [R7G],4.33
9,DRKLHSLPRKLYKHSSTSSRIAKG [R7L],2.84
10,DRKLHSNPRKLYKHSSTSSRIAKG [R7N],4.1
11,DRKLHSVPRKLYKHSSTSSRIAKG [R7V],3.28
12,DRKLHSPPRKLYKHSSTSSRIAKG [R7P],4.33
13,DRKLHSMPRKLYKHSSTSSRIAKG [R7M],3.84
14,DRKLHSFPRKLYKHSSTSSRIAKG [R7F],2.59
15,DRKLHSIPRKLYKHSSTSSRIAKG [R7I],3.31
16,DRKLHSHPRKLYKHSSTSSRIAKG [R7H],3.79
17,DRKLHSYPRKLYKHSSTSSRIAKG [R7Y],3.83
18,DRKLHSCPRKLYKHSSTSSRIAKG [R7C],3.76
19,DRKLHSEPRKLYKHSSTSSRIAKG [R7E],4.41
20,DRKLHSKPRKLYKHSSTSSRIAKG [R7K],3.33
21,DRKLHSSPRKLYKHSSTSSRIAKG [R7S],4.21
22,DRKLHSQPRKLYKHSSTSSRIAKG [R7Q],4.4
23,DRKLHSAPRKLYKHSSTSSRIAKG [R7A],3.98
24,DRKLHSWPRKLYKHSSTSSRIAKG [R7W],2.97

row,Variant,protein stability index
1,DRKLHSRPDKLYKHSSTSSRIAKG [R9D],4.01
2,DRKLHSRPAKLYKHSSTSSRIAKG [R9A],4.1
3,DRKLHSRPCKLYKHSSTSSRIAKG [R9C],3.74
4,DRKLPSRPRKLYKHSSTSSRIAKG [H5P],4.5
5,DRKLRSRPRKLYKHSSTSSRIAKG [H5R],3.9
6,DRKLYSRPRKLYKHSSTSSRIAKG [H5Y],3.02
7,DRKLNSRPRKLYKHSSTSSRIAKG [H5N],5.44
8,DRKLCSRPRKLYKHSSTSSRIAKG [H5C],3.9
9,DRKLGSRPRKLYKHSSTSSRIAKG [H5G],2.82
10,DRKLSSRPRKLYKHSSTSSRIAKG [H5S],4.34
11,DRKLWSRPRKLYKHSSTSSRIAKG [H5W],3.16
12,DRKLTSRPRKLYKHSSTSSRIAKG [H5T],4.17
13,DRKLISRPRKLYKHSSTSSRIAKG [H5I],3.74
14,DRKLDSRPRKLYKHSSTSSRIAKG [H5D],3.99
15,DRKLKSRPRKLYKHSSTSSRIAKG [H5K],4.09
16,DRKLFSRPRKLYKHSSTSSRIAKG [H5F],4.43
17,DRKLASRPRKLYKHSSTSSRIAKG [H5A],4.22
18,DRKLVSRPRKLYKHSSTSSRIAKG [H5V],3.02
19,DRKLMSRPRKLYKHSSTSSRIAKG [H5M],3.43
20,DRKLLSRPRKLYKHSSTSSRIAKG [H5L],3.72
21,DRKLQSRPRKLYKHSSTSSRIAKG [H5Q],3.69
22,DRKLESRPRKLYKHSSTSSRIAKG [H5E],4.09
